Where two headings read alike, the source gives them in different places.
Tests used:
[1] = crude yeast extract, 37° C., cited from earlier work
T. maritima = assay: Selective levels of kanamycin in liquid and solid SVO media; format: cell-based, Thermotoga maritima; conditions: liquid SVO
Method: (§1) One ml of overnight culture was mixed with 25 ml of hot SVO containing 0.3% GELRITE and poured to Petri dishes. Small discs of 7 mm in diameter were cut from Whatman qualitative filter paper and were placed on solidified plates. Various amount of kanamycin (50˜250 μg) was added to the paper discs. After 48 h of anaerobic incubation, sensitive strains would display inhibition zones surrounding the discs. To specify the selective levels of the antibiotic in both liquid and solid media, kanamycin ranging from 50 to 300 μg ml^−1 was supplemented, and the proliferation of bacteria was monitored for up to 72 h.
(§2) We next specified the selective levels of kanamycin in both liquid and solid media. […] However, spontaneous mutations sometimes caused the cultures to become resistant to the antibiotic, and a complete inhibition over a period of 72 h was only possible when the input amount was increased to 150 μg ml^−1. Similar phenomena were also noticed with T. sp. RQ7. On SVO plates, spontaneous mutants of T. maritima and T. sp. […] Based on these observations, for the rest of the study, kanamycin was added at 150 μg ml^−1 to liquid media and at 250 μg ml^−1 to soft and solid media.

T. sp. RQ7 = assay: as above; format: cell-based, Thermotoga sp. RQ7; conditions: SVO plates, 48 h of incubation
Method: as §1, §2

pUC19 DNA [2] = assay: Modification assay: protection of pUC19 DNA from the REase by CTN_0340 extract; format: biochemical; conditions: 10 μl extract, 77° C. 1 h, then REase overnight at 77° C.
Method: One gram of E. coli wet cells grown at 37° C., containing pJC339 or pJC340 or both, were resuspended in 3 ml lysis buffer (10 mM Tris-HCl, 10 mM MgCl2, 50 mM NaCl, 1 mM DTT, pH 8.0) and were lysed with two passages through a French press at 14,000 pounds per square inch. After centrifugation at 27 k×g for 25 min, the supernatant was transferred to a new tube and heated at 77° C. for 1 h to denature most of the host proteins, followed by another round of centrifugation at 17 k×g for 15 min. The supernatant containing purified Thermotoga proteins was stored at 4° C. Such extracts retained 100% of the restriction activity for up to 5 weeks, and ≧50% of the activity for at least 12 weeks. For expression analysis, heat-purified cell extracts were mixed with loading buffer and were subjected to sodium dodecyl sulfate-polyacrylamide gel electrophoresis (SDS-PAGE) in 15% (w/v) gels. HisDetector Western Blot Kit (Kirkegaard & Perry Laboratories, Inc., Maryland, USA) was used for colorimetric immunodetection of histidine-tagged CTN—0339 protein. […] One unit of the REase activity is defined as the quantity required to completely digest 1 μg of pUC19 DNA in 1 h at 77° C. […] One unit of the MTase activity is defined as the quantity required to completely protect 1 μg of pUC19 DNA from the cleavage of the REase for 1 h at 77° C. […]

pUC19 = assay: Enzyme activity assay of M.TneDI prepared from DH1021 strains; format: biochemical
Method: Cells from 10 ml of the induced DH1021 cultures were harvested by centrifugation and were resuspended in 150 μl of lysis buffer (10 mM Tris-HCl, 10 mM MgCl2, 50 mM NaCl, 1 mM DTT, pH 8.0). Lysozyme was added to a final concentration of 0.3 mg/ml. The cell suspension was subject to 3 freeze-thaw cycles to lyse the cells. Cell lysate was then heated at 77° C. for 30 min to denature host proteins. After centrifugation at 21,130 g for 5 min, the supernatant was recovered and used as M.TneDI preparations for activity assays. Such prepared M.TneDI can be stored at −20° C. in the presence of 10% (v/v) glycerol for more than 2 months.
Plasmid pUC19 extracted from a XL1-Blue MRF′ host was used as the substrate DNA (FIG. 10). Eight micrograms of pUC19 was incubated with 10 μl of the above prepared M.TneDI for 1 h at 77° C., supplemented with 20 μg/ml of S-adenosyl-L-methionine (AdoMet). The DNA was then subjected to restriction digestions of R.TneDI or other Type II REases recognizing CGCG sequence, such as BstUI. […] Based on the growth and the enzyme activity assays, DH10212-3 was identified as the best strain for production of M.TneDI.

pUC19 DNA [3] = assay: Restriction assay of heat-purified cell extracts containing the REase; format: biochemical; conditions: for restriction activity retained on storage: heat-purified extract stored at 4° C.
Method: One gram of E. coli wet cells grown at 37° C., containing pJC339 or pJC340 or both, were resuspended in 3 ml lysis buffer (10 mM Tris-HCl, 10 mM MgCl2, 50 mM NaCl, 1 mM DTT, pH 8.0) and were lysed with two passages through a French press at 14,000 pounds per square inch. After centrifugation at 27 k×g for 25 min, the supernatant was transferred to a new tube and heated at 77° C. for 1 h to denature most of the host proteins, followed by another round of centrifugation at 17 k×g for 15 min. The supernatant containing purified Thermotoga proteins was stored at 4° C. Such extracts retained 100% of the restriction activity for up to 5 weeks, and ≧50% of the activity for at least 12 weeks. For expression analysis, heat-purified cell extracts were mixed with loading buffer and were subjected to sodium dodecyl sulfate-polyacrylamide gel electrophoresis (SDS-PAGE) in 15% (w/v) gels. HisDetector Western Blot Kit (Kirkegaard & Perry Laboratories, Inc., Maryland, USA) was used for colorimetric immunodetection of histidine-tagged CTN—0339 protein. For restriction assays, heat-purified cell extracts containing the REase were serially diluted in 2-fold steps with the lysis buffer and were incubated with 5 μg of substrate DNA in a reaction volume of 50 μl. After 1 h of incubation at 50° C., 65° C., or 77° C., the reaction was terminated with 5 μl of stopping buffer (50 mM EDTA, 50% (w/v) glycerol, 0.02% (w/v) bromophenol blue, pH 8.0). Digested DNA fragments were resolved on 1% (w/v) agarose gels. One unit of the REase activity is defined as the quantity required to completely digest 1 μg of pUC19 DNA in 1 h at 77° C. For modification assays, heat-purified cell extracts containing the MTase were serially diluted in 2-fold steps with the lysis buffer and were incubated with 5 μg of substrate DNA in a total volume of 50 μl. After 1 h of incubation at 77° C., the reaction mix was then incubated with 0.5 U of the REase at 77° C. for overnight. One unit of the MTase activity is defined as the quantity required to completely protect 1 μg of pUC19 DNA from the cleavage of the REase for 1 h at 77° C.
The PCR product of CTN—0339 was completely digested by heat-purified REase. Two fragments were generated and were retrieved from agarose gels. The smaller piece was directly analyzed by Sanger sequencing; the larger piece was further digested by NdeI and was inserted into pUC19 at the NdeI-SmaI sites to form pDH22. The insertion region of the constructed vector was sequenced.
To provide further evidence to the functions of the two Thermotoga proteins, we first tested the restriction activity of CTN—0339 at 50° C., 65° C., and 77° C. using pUC19 plasmid DNA prepared from strain XL1-Blue MRF′. […] (FIG. 3). […] (FIG. 3). […]

## C[S+](CC[C@H](N)C(=O)[O-])C[C@H]1O[C@@H](n2cnc3c(N)ncnc32)[C@H](O)[C@@H]1O (stereo partly drawn) [AdoMet, S-adenosyl-L-methionine]
[1]; 6 days
  original AdoMet found: ~70%
[1]; 15 days
  original AdoMet found: ~25%

## NC[C@H]1O[C@H](O[C@H]2[C@H](O)[C@@H](O[C@H]3O[C@H](CO)[C@@H](O)[C@H](N)[C@H]3O)[C@H](N)C[C@@H]2N)[C@H](O)[C@@H](O)[C@@H]1O [kanamycin]
T. maritima; at least 72 h
  kanamycin concentration that completely inhibited growth: 50 µg/mL
T. maritima; over a period of 72 h
  kanamycin input needed for complete inhibition despite spontaneous mutations: 150 µg/mL
T. sp. RQ7
  kanamycin concentration at which spontaneous mutants rarely showed up: 250 µg/mL

B1: M.TneDI: methyltransferase of T. neapolitana encoded by CTN_0340, modifies CGCG sequences; SEQ ID NO: 14 (protein, listed as Thermotoga neapolitana)
chain: MKRRKSTRTSSFGVKGRESHDSSPFYSRAIYSNFSLPKPSEEDLIENPLPENLLDKVIEGDAREVLKKIPDCSIHLMVTSPPYNVGKEYDEDMTLDEYLEFIEEIMKEVYRVLVWGGRACFNVANLGRKPYIPLHAYLIHLFEKIGFLIRGEIIWDKGEAVSGSSTAWGSWMSPVNPVLRDQHEYIIVMSKGDLKRRKPSDREAKSTITREEFLEFTRSVWKFPPESAKRVGHPAPFPEELPYRCIQLYTFKGDVVLDPFAGVGTTCVAAVKTGRHFVGIEINPEYVKKAEERVKDILSKPTLFEDHC
pUC19 DNA [2]
  digestion of treated pUC19 DNA by the REase: only partially digested
pUC19; 10 μl preparation, 8 μg pUC19, 1 h at 77° C., 20 μg/ml AdoMet
  protection of substrate DNA from R.TneDI or BstUI: prevents substrate DNA from the degradation
pUC19; −20° C., 10% (v/v) glycerol
  storage time of M.TneDI preparation: more than 2 months

B2: R.TneDI: Type II restriction endonuclease of T. neapolitana encoded by CTN_0339, recognizing CGCG; SEQ ID NO: 13 (protein, listed as Thermotoga neapolitana)
chain: MRKTDPLIDIFKKNKERIDILGKAWDIFYFEGRAPDVGKRRENFIVEMIRKELSHFIKSVNQAPDTERNWDIEITFQDDSTKRYSIKTTEGFSDVKIAWDGFPTKDRILTFNFQADIFYIARNKDKIILCVIDLEKLRDLQREVEKNESKLEEYYSLPSSNTNPRGFGLKSSTVKRLIELSKKEENYLEIDYKPFPVELILKAKEEYFKGWYDLIKELIEKYQQ
pUC19 DNA [3]; 65° C. or 50° C.
  extract required to completely digest 1 μg of pUC19 DNA within 1 h: 2.5 μl
pUC19 DNA [3]; 77° C., relative to the amount at 65° C. or 50° C.
  extract required to completely digest 1 μg of pUC19 DNA within 1 h: half of the amount
pUC19 DNA [3]; at least 12 weeks
  restriction activity retained on storage: ≥ 50%
pUC19 DNA [3]; up to 5 weeks
  restriction activity retained on storage: 100%
